The values that follow come from publication PMC5047623 (PLoS ONE, 2016).

In this test the target is T1, purified α5ß1 ectodomain protein (human, UniProt P08648 42-995; P05556 21-728).
T1 construct: signal peptide in the construct; human integrin alpha-5, residues 1-995; human integrin beta-1, residues 1-728; Thrombin cleavage site between the integrin and the Fc; residues of the site may remain; also called purified and untagged α5ß1; α5ß1 integrin; not shown: Fc, C-terminal, cleaved
The experiment in a line: SPR; ProteOn XPR36, GLC chip; rhTie1 (4750 RU) and rhTie2 (6400 RU) amine-coupled; α5ß1 at 3 μM flowed at 60 μL/min for 3 min; 25 degrees Celsius; 20 mM Tris, 100 mM NaCl, 1 mM MnCl2, 2 mM CaCl2 pH 7.5; BSA channel subtracted. The note with it: both partners purified. Background: Surface plasmon resonance follows binding to a sensor surface in real time, without labels.

T1 sequence (P08648 42-995, chain 1 of 2): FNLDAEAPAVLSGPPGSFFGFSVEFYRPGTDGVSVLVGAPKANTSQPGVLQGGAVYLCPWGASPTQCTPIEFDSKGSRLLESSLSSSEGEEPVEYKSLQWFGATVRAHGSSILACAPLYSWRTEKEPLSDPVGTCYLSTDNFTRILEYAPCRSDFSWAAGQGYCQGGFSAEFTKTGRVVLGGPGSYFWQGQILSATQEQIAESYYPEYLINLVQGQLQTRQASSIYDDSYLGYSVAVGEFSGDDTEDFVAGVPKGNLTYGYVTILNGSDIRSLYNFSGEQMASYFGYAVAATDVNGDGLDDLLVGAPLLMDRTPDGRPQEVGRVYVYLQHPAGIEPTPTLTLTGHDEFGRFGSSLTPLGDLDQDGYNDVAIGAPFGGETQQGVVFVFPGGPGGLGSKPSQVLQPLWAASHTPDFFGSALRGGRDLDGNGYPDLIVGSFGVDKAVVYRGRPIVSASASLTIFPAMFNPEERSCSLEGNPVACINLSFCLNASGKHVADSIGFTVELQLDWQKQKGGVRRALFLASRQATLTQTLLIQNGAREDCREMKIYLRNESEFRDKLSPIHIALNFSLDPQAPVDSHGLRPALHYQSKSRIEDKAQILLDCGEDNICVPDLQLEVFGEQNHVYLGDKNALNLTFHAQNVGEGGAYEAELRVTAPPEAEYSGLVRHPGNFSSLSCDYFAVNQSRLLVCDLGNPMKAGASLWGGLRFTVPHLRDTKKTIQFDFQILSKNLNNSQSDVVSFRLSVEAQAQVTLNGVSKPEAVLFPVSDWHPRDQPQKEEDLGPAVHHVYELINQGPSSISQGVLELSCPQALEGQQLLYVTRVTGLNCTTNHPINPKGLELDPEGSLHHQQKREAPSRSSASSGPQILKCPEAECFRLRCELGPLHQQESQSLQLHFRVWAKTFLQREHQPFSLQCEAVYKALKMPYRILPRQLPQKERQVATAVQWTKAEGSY
T1 sequence (P05556 21-728, chain 2 of 2): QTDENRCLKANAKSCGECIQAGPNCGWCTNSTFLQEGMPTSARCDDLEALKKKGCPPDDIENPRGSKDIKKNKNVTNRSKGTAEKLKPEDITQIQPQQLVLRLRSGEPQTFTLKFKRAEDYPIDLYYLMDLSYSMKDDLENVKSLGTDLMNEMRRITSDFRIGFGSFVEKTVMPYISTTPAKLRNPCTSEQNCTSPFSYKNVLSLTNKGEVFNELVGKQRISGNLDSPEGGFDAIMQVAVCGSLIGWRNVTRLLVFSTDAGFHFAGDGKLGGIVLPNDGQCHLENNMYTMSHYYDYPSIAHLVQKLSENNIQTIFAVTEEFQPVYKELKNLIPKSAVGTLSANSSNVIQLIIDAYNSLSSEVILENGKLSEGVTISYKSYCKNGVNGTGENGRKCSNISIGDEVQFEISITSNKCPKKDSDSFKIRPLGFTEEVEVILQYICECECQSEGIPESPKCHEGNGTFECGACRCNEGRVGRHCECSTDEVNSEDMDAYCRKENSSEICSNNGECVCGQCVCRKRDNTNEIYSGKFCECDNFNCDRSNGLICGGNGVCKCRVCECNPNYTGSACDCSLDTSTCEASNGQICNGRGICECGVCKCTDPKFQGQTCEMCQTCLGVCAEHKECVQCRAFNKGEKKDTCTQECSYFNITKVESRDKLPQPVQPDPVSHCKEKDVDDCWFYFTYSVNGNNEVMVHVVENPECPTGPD

B1: recombinant human Tie1 (rhTie1) extracellular domain, Fc tagged (Fc fusion, UniProt P35590 22-759, looked up)
chain: AVDLTLLANLRLTDPQRFFLTCVSGEAGAGRGSDAWGPPLLLEKDDRIVRTPPGPPLRLARNGSHQVTLRGFSKPSDLVGVFSCVGGAGARRTRVIYVHNSPGAHLLPDKVTHTVNKGDTAVLSARVHKEKQTDVIWKSNGSYFYTLDWHEAQDGRFLLQLPNVQPPSSGIYSATYLEASPLGSAFFRLIVRGCGAGRWGPGCTKECPGCLHGGVCHDHDGECVCPPGFTGTRCEQACREGRFGQSCQEQCPGISGCRGLTFCLPDPYGCSCGSGWRGSQCQEACAPGHFGADCRLQCQCQNGGTCDRFSGCVCPSGWHGVHCEKSDRIPQILNMASELEFNLETMPRINCAAAGNPFPVRGSIELRKPDGTVLLSTKAIVEPEKTTAEFEVPRLVLADSGFWECRVSTSGGQDSRRFKVNVKVPPVPLAAPRLLTKQSRQLVVSPLVSFSGDGPISTVRLHYRPQDSTMDWSTIVVDPSENVTLMNLRPKTGYSVRVQLSRPGEGGEGAWGPPTLMTTDCPEPLLQPWLEGWHVEGTDRLRVSWSLPLVPGPLVGDGFLLRLWDGTRGQERRENVSSPQARTALLTGLTPGTHYQLDVQLYHCTLLGPASPPAHVLLPPSGPPAPRHLHAQALSDSEIQLTWKHPEALPGPISKYVVEVQVAGGAGDPLWIDVDRPEETSTIIRGLNASTRYLFRMRASIQGLGDWSNTVEESTLGNGLQAEGPVQESRAAEEGLDQ
notes: human Tie1, full extracellular domain; amine-coupled to a GLC sensor chip; also called immobilized Tie1
As to B1, the binding result is “binds”.
